From publication PMC2115787
Where two headings read alike, the source gives them in different places.

What was measured:
Experiment in all cases: light chain exchange into myosin
[1] = target: myosin from adult White Rock chicken pectoralis muscle (chicken) (UniProt P02609)
[2] = target: myosin from adult White Rock chicken pectoralis muscle (chicken) (UniProt P02609); remark: listed apart in the source
[3] = target: myosin from adult White Rock chicken pectoralis muscle (chicken) (UniProt P02609); remark: listed apart in the source
[4] = target: myosin from adult White Rock chicken pectoralis muscle (chicken) (UniProt P02609); remark: listed apart in the source

- percent exchange [1]: 7%
- percent exchange [2]: 26%
- percent exchange [3]: 49%
- percent exchange [4]: 84%
Substance: regulatory light chain LC2 singly labeled with fluorescein at Cys 125 (from UniProt P02609 1-168) (natural protein)
